Assay results: PMC6255954 (British Journal of Pharmacology, 2018)

Columns and labels:
[1] = target: T1, GFP‐tagged human NOP receptor in HEK cells (HEK_(hNOP‐GFP)) (human, UniProt P41146 1-370); assay: cell-based or functional assay
[2] = target: T2, human N/OFQ peptide (NOP) receptor, recombinant in CHO cells (CHO_(hNOP)) (human, UniProt P41146 1-370); assay: radioligand binding; displacement of ~0.8 nM [3H]-N/OFQ from CHO_(hNOP) membranes (20-40 ug protein) by 1 pM-10 uM ligand; 50 mM Tris-HCl pH 7.4 with 0.5% BSA, room temperature, 1 h, vacuum filtration; non-specific binding with 1 uM N/OFQ; conditions: one partner purified
T2 construct: nociceptin/orphanin FQ (N/OFQ) peptide receptor (NOP), human, recombinant in CHO cells; used as cell membranes; source: CHO cells, stably transfected, cell membranes

[3] = target: T1, GFP‐tagged human NOP receptor in HEK …; assay: confocal microscopy of a fluorescent ligand on live cells; N/OFQ_(ATTO594) added cumulatively (1 pM-100 nM) to HEK_(hNOP) or HEK_(hNOP-GFP) cells on coverslips, 5 min at 4°C in Krebs buffer pH 7.4, washed, imaged with the 594 nm laser; corrected total cell fluorescence; saturation curve; conditions: one partner purified
[4] = target: T3, human N/OFQ peptide (NOP) receptor, recombinant in HEK cells (HEK_(hNOP)) (human, UniProt P41146 1-370); assay: as above; conditions: one partner purified
T3 construct: nociceptin/orphanin FQ (N/OFQ) peptide receptor (NOP), human, recombinant in HEK cells, no GFP; also called HEKNOP; source: HEK cells expressing the recombinant NOP receptor; live cells on coverslips (confocal) and radioligand displacement

[5] = target: T1, GFP‐tagged human NOP receptor in HEK …; assay: radioligand binding; displacement of [3H]-N/OFQ in HEK_(hNOP) and HEK_(hNOP-GFP) cells, room temperature; conditions: one partner purified
[6] = target: T3, human N/OFQ peptide (NOP) receptor, …; assay: as above; conditions: one partner purified

T1 sequence (P41146 whole entry): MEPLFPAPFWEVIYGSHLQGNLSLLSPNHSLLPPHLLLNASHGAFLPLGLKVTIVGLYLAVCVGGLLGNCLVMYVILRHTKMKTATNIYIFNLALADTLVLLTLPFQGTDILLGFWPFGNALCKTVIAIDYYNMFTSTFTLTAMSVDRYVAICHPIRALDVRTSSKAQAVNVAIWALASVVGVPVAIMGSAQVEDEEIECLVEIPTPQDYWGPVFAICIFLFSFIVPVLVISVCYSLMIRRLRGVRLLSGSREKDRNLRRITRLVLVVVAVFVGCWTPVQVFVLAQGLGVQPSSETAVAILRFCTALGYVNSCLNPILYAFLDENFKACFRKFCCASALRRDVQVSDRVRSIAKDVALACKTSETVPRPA
T3 sequence (P41146 whole entry): as above
T2 sequence (P41146 whole entry): as above

FGGFTGARKSARKLANQC (ATTO 594 on Cys18; C-terminal amide (NH2)) [[Cys(ATTO 594)^18]N/OFQ‐NH2]
pEC50, inhibition of forskolin-stimulated cAMP formation in HEK_(hNOP-GFP) cells, 0.1 pM-1 μM, 37°C, 15 min [1]: 9.73
pKi [2]: 9.21
pKd [3]: 8.53
pKd [4]: 9.51
pKi [5]: 8.98
pKi [6]: 9.14
